Data reported in IntAct's records for PubMed 29039417.

B1: Isoform 2 of Bardet-Biedl syndrome 7 protein (Homo sapiens), Q8IWZ6-2 (parent)
chain: MDLILNRMDYLQVGVTSQKTMKLIPASRHRATQKVVIGDHDGVVMCFGMKKGEAAAVFKTLPGPKIARLELGGVINTPQEKIFIAAASEIRGFTKRGKQFLSFETNLTESIKAMHISGSDLFLSASYIYNHYCDCKDQHYYLSGDKINDVICLPVERLSRITPVLACQDRVLRVLQGSDVMYAVEVPGPPTVLALHNGNGGDSGEDLLFGTSDGKLALIQITTSKPVRKWEIQNEKKRGGILCIDSFDIVGDGVKDLLVGRDDGMVEVYSFDNANEPVLRFDQMLSESVTSIQGGCVGKDSYDEIVVSTYSGWVTGLTTEPIHKESGPGEELKINQEMQNKISSLRNELEHLQYKVLQERENYQQSSQSSKAKSAVPSFGINDKFTLNKDDASYSLILEVQTAIDNVLIQSDVPIDLLDVDKNSAVVSFSSCDSESNDNFLLATYRCQADTTRLELKIRSIEGQYGTLQAYVTPRIQPKTCQVRQYHIKPLSLHQRTHFIDHDRPMNTLTLTGQFSFAEVHSWVVFCLPEVPEKPPAGECVTFYFQNTFLDTQLESTYRKGEGVFKSDNISTISILKDVLSKEATKRKINLNISYEINEVSVKHTLKLIHPKLEYQLLLAKKVQLIDALKELQIHEGNTNFLIPEYHCILEEADHLQEEYKKQPAHLERLYG
partner: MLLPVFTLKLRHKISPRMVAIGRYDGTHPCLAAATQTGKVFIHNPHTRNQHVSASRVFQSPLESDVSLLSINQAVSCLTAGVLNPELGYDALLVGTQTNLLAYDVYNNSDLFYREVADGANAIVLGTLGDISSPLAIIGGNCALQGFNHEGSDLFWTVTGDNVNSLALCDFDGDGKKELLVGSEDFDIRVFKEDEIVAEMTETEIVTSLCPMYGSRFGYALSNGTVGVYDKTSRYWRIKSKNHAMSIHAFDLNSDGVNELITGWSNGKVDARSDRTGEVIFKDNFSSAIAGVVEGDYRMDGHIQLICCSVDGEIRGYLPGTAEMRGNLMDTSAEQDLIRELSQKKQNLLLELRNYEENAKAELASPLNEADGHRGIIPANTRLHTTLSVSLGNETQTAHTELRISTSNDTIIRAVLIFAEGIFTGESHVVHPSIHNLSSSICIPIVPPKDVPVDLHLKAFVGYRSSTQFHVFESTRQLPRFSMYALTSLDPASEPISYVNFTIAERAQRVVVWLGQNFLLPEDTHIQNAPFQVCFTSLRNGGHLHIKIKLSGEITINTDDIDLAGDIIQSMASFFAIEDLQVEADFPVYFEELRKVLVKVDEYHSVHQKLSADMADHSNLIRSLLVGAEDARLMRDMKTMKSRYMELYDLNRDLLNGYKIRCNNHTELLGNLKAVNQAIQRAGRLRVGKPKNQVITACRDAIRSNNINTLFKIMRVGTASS

Variants of: B1
Conditions: with bbs2_human BBS2, Q9BXC9

Variant	effect of a mutation on the interaction
P505E	with no effect
P505A	with no effect
P505K	with no effect
R496E	with no effect
R496K	with no effect
S492K	with no effect
S492E	with no effect
Y486A	with no effect
Y486E	with no effect
F499E	with no effect
F499A	with no effect
F499K	with no effect
Q485E	with no effect
Q485K	with no effect
Q485L	disrupting interaction strength
L491P	disrupting interaction strength
L491K	with no effect
Q495A	with no effect
Q495K	with no effect
H494A	with no effect
H494E	with no effect

Variant	effect of a mutation on the interaction
H494K	with no effect
T480K	with no effect
T480E	with no effect
R504K	with no effect
R504E	with no effect
C481E	with no effect
C481R	disrupting interaction strength
C481K	with no effect
I488E	with no effect
I488K	with no effect
D501E	with no effect
P490A	with no effect
P490K	with no effect
P490E	with no effect
R484K	with no effect
R484E	with no effect
I500K	with no effect
I500A	with no effect
L493A	with no effect
L493K	with no effect
L493P	disrupting interaction strength

Variant	effect of a mutation on the interaction
V483E	with no effect
V483I	disrupting interaction strength
V483K	with no effect
M506E	with no effect
M506A	with no effect
M506K	with no effect
H502K	with no effect
H502A	with no effect
Q482A	with no effect
Q482E	with no effect
Q482K	with no effect
K489A	with no effect
K489E	with no effect
H498E	with no effect
H498A	with no effect
H498K	with no effect
T497K	with no effect
T497E	with no effect
D503E	with no effect
D503A	with no effect

Other lines, results leading:

effect of a mutation on the interaction	Variant
with no effect	R496A
with no effect	S492A
with no effect	Y486K
disrupting interaction strength	F499S
disrupting interaction strength	Q485R
with no effect	Q485A
disrupting interaction strength	Q485N
with no effect	L491A
with no effect	L491E
with no effect	Q495E
with no effect	R504A
with no effect	N507A
with no effect	C481A
with no effect	I488A
with no effect	D501A
with no effect	D501K
disrupting interaction strength	P490L
with no effect	R484A
with no effect	I500E
with no effect	L493E
with no effect	V483A
with no effect	H487E
with no effect	H487K
with no effect	H487A
with no effect	H502E
with no effect	T497A
with no effect	D503K
